Measured values taken from FireProtDB (doi:10.1021/bi034486i).

B1: Thioredoxin-like protein 4A, P83876 (parent)
chain: MSYMLPHLHNGWQVDQAILSEEDRVVVIRFGHDWDPTCMKMDEVLYSIAEKVKNFAVIYLVDITEVPDFNKMYELYDPCTVMFFFRNKHIMIDLGTGNNNKINWAMEDKQEMVDIIETVYRGARKGRGLVVSPKDYSTKYRY

Variants of: B1
Details: Homo sapiens; pH 7.82; 20 °C; GdnHCl; CD; sodium phosphate 50 mM; structure 1QGV; whole UniProt chain shown

Variant	ddG of mutation (higher = less stable) [kcal/mol]	denaturant m value [kcal/mol/M]	denaturant midpoint (higher = more stable) [M]	unfolding free energy [kcal/mol]
MSYMLPHLHNGWQVDQAILSEEDRVVVIRFGHDWDPTCMKMDEVLYSIAEKVKNFAVIYLVDITEVPDFNKMYELYDPCTVMFFFRNKHIMIDLGTGNNNKINWAMEDKQEMVDIIETVYRGARKDRGLVVSPKDYSTKYRY	1.71	2.78	3.36	9.34
